Consider one molecule from PMC8873214, “RIOX1-demethylated cGAS regulates ionizing radiation-elicited DNA repair” (Bone Research, 2022).

The experiment addresses T1, purified K491me-bearing Flag-cGAS (mouse, UniProt Q8C6L5 1-507, monomethyl-lysine at K491).
T1 construct: cyclic GMP-AMP synthase (cGAS), mouse (K491 is the mouse numbering); also called K491me-bearing cGAS; purified Flag-cGAS protein methylated by His-SET7; source: bacterially purified, then methylated in vitro with purified His-SET7
Kind of experiment: pull-down; purified Flag-cGAS methylated in vitro by purified His-SET7, incubated with purified SGF29, then with biotin-PAR; streptavidin pulldown, immunoblot; binding of SGF29 read from the loss of PAR-bound cGAS. Conditions: both partners purified.

T1 sequence (Q8C6L5 whole entry): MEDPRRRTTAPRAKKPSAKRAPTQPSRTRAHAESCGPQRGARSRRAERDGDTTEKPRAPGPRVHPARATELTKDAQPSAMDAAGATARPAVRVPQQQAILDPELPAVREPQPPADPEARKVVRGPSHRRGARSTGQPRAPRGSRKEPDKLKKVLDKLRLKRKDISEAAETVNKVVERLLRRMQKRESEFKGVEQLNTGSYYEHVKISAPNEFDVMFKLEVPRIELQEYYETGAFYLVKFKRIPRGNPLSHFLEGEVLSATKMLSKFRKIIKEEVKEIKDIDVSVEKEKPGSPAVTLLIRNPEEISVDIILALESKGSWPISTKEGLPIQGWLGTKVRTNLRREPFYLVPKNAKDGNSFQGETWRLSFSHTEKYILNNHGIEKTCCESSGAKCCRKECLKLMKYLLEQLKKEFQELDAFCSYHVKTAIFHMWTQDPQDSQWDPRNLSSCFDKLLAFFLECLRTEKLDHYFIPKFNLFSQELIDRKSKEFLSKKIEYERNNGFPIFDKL

B1: purified His-SGF29 protein (natural protein, mouse, UniProt Q9DA08 1-293, looked up)
chain: MALVSADSRIAELLTELHQLIKQTQEERSRSEHNLVNIQKTHERMQTENKISPYYRTKLRGLYTTAKTDAEAECNILRKALDKIAEIKSLLEERRIAAKIAGLYNDSEPPRKTMRRGVLMTLLQQSAMTLPLWIGKPGDKPPPLCGAIPASGDYVAKPGDKVAARVKAVEGDEQWILAEVVSYSHATNKYEVDDIDEEGKERHTLSRRRIIPLPQWKANPETDPEALFQKEQLVLALYPQTTCFYRALIHTPPQRPQDDYSVLFEDTSYADGYSPPLNVAQRYVVACKEPKKK
notes: SAGA complex-associated factor 29 (SGF29); mouse and human SGF29 were cloned; also called purified WT SGF29 protein; source: E. coli BL21(DE3), purified
Regarding B1, the binding result is “binds”.
